Measurements published in IntAct's records for PubMed 25910212.

B1: Retinol dehydrogenase 12 (Homo sapiens), Q96NR8 (parent)
chain: MLVTLGLLTSFFSFLYMVAPSIRKFFAGGVCRTNVQLPGKVVVITGANTGIGKETARELASRGARVYIACRDVLKGESAASEIRVDTKNSQVLVRKLDLSDTKSIRAFAEGFLAEEKQLHILINNAGVMMCPYSKTADGFETHLGVNHLGHFLLTYLLLERLKVSAPARVVNVSSVAHHIGKIPFHDLQSEKRYSRGFAYCHSKLANVLFTRELAKRLQGTGVTTYAVHPGVVRSELVRHSSLLCLLWRLFSPFVKTAREGAQTSLHCALAEGLEPLSGKYFSDCKRTWVSPRARNNKTAERLWNVSCELLGIRWE
B2: Ribose-phosphate pyrophosphokinase 1 (Homo sapiens), P60891 (parent)
chain: MPNIKIFSGSSHQDLSQKIADRLGLELGKVVTKKFSNQETCVEIGESVRGEDVYIVQSGCGEINDNLMELLIMINACKIASASRVTAVIPCFPYARQDKKDKSRAPISAKLVANMLSVAGADHIITMDLHASQIQGFFDIPVDNLYAEPAVLKWIRENISEWRNCTIVSPDAGGAKRVTSIADRLNVDFALIHKERKKANEVDRMVLVGDVKDRVAILVDDMADTCGTICHAADKLLSAGATRVYAILTHGIFSGPAISRINNACFEAVVVTNTIPQEDKMKHCSKIQVIDISMILAEAIRRTHNGESVSYLFSHVPL
partner: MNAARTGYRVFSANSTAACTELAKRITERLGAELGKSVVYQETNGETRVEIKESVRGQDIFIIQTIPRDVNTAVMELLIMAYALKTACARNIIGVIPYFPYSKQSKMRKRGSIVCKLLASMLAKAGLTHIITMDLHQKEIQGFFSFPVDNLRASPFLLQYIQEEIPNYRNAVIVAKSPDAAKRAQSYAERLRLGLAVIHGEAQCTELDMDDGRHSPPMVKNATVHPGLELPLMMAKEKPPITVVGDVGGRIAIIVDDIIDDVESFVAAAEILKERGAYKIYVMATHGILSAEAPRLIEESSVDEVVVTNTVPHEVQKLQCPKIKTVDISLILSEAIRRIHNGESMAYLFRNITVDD
B3: Plakophilin-2 (Homo sapiens), Q99959-2 (parent)
chain: MAAPGAPAEYGYIRTVLGQQILGQLDSSSLALPSEAKLKLAGSSGRGGQTVKSLRIQEQVQQTLARKGRSSVGNGNLHRTSSVPEYVYNLHLVENDFVGGRSPVPKTYDMLKAGTTATYEGRWGRGTAQYSSQKSVEERSLRHPLRRLEISPDSSPERAHYTHSDYQYSQRSQAGHTLHHQESRRAALLVPPRYARSEIVGVSRAGTTSRQRHFDTYHRQYQHGSVSDTVFDSIPANPALLTYPRPGTSRSMGNLLEKENYLTAGLTVGQVRPLVPLQPVTQNRASRSSWHQSSFHSTRTLREAGPSVAVDSSGRRAHLTVGQAAAGGSGNLLTERSTFTDSQLGNADMEMTLERAVSMLEADHMLPSRISAAATFIQHECFQKSEARKRVNQLRGILKLLQLLKVQNEDVQRAVCGALRNLVFEDNDNKLEVAELNGVPRLLQVLKQTRDLETKKQITGLLWNLSSNDKLKNLMITEALLTLTENIIIPFSGWPEGDYPKANGLLDFDIFYNVTGCLRNMSSAGADGRKAMRRCDGLIDSLVHYVRGTIADYQPDDKATENCVCILHNLSYQLEAELPEKYSQNIYIQNRNIQTDNNKSIGCFGSRSRKVKEQYQDVPMPEEKSNPKGVEWLWHSIVIRMYLSLIAKSVRNYTQEASLGALQNLTAGSGPMPTSVAQTVVQKESGLQHTRKMLHVGDPSVKKTAISLLRNLSRNLSLQNEIAKETLPDLVSIIPDTVPSTDLLIETTASACYTLNNIIQNSYQNARDLLNTGGIQKIMAISAGDAYASNKASKAASVLLYSLWAHTELHHAYKKAQFKKTDFVNSRTAKAYHSLKD
partner: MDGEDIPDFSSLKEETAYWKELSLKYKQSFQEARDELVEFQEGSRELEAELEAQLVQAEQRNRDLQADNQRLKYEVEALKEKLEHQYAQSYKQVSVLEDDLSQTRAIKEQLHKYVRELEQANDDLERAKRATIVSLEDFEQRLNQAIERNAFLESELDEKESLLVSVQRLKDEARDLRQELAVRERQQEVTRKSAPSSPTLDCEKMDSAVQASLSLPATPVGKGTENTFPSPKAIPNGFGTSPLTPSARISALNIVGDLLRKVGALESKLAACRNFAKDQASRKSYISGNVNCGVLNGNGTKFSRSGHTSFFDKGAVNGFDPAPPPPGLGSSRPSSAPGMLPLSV
B4: Emerin (Homo sapiens), P50402 (parent)
chain: MDNYADLSDTELTTLLRRYNIPHGPVVGSTRRLYEKKIFEYETQRRRLSPPSSSAASSYSFSDLNSTRGDADMYDLPKKEDALLYQSKGYNDDYYEESYFTTRTYGEPESAGPSRAVRQSVTSFPDADAFHHQVHDDDLLSSSEEECKDRERPMYGRDSAYQSITHYRPVSASRSSLDLSYYPTSSSTSFMSSSSSSSSWLTRRAIRPENRAPGAGLGQDRQVPLWGQLLLFLVFVIVLFFIYHFMQAEEGNPF
partner: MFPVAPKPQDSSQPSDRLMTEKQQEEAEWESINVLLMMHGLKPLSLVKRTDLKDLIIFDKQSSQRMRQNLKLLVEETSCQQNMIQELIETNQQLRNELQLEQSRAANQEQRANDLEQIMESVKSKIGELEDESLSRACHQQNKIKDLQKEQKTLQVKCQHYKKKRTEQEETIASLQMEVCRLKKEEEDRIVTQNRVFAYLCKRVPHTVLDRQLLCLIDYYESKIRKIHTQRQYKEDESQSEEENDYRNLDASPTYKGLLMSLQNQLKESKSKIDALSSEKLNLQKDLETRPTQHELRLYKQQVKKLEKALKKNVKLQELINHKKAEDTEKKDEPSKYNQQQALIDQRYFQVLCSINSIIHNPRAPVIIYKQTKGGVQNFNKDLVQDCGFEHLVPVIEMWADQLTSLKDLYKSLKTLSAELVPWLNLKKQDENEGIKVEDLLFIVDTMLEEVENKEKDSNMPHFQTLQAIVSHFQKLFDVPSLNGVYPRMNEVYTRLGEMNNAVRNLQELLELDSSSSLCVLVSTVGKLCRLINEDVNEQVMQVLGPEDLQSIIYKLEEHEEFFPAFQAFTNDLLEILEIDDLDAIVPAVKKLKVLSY

Variants of: B1
Conditions: with RBPMS

| Variant | effect of a mutation on the interaction |
| --- | --- |
| C285Y | with no effect |
| P230A | with no effect |

Variants of: B2
Conditions: with kpra_human PRPSAP1, Q14558

| Variant | effect of a mutation on the interaction |
| --- | --- |
| D183H | with no effect |
| N114S | with no effect |
| D52H | with no effect |

Variants of: B3
Conditions: with ndel1_human NDEL1, Q9GZM8

| Variant | effect of a mutation on the interaction |
| --- | --- |
| A264V | with no effect |
| S644P | disrupting interaction strength |
| S140F | disrupting interaction strength |

Variants of: B4
Conditions: with cep70_human CEP70, Q8NHQ1

| Variant | effect of a mutation on the interaction |
| --- | --- |
| D72V | with no effect |
| S54F | with no effect |
| P183H | with no effect |
